Experimental data from PMC5457501 (Nature Communications, 2017).
Where “and” joins values, the source holds several entries; their conditions need not be identical. Identical values can stand only once. One block for each binder: values may come before it.

B1: RPA70N (RPA70 residues 1-120) (domain or fragment, human, UniProt P27694 1-120, looked up)
chain: MVGQLSEGAIAAIMQKGDTNIKPILQVINIRPITTGNSPPRYRLLMSDGLNTLSSFMLATQLNPLVEEEQLSSNCVCQIHRFIVNTLKDGRRVVILMELEVLKSAEAVGVKIGNPVPYNE
notes: RPA70 (replication protein A 70 kDa subunit), human, N-terminal domain, residues 1-120; pET15b construct; 15N-enriched for some NMR samples; also called RPA70_(1-120); RPA70N domain of RPA70; source: E. coli BL21 (DE3), purified (HisTrap, thrombin cleavage, Superdex 75)
B2: RPA70N^E7R (domain or fragment, human, UniProt P27694 1-120, looked up)
chain: MVGQLSRGAIAAIMQKGDTNIKPILQVINIRPITTGNSPPRYRLLMSDGLNTLSSFMLATQLNPLVEEEQLSSNCVCQIHRFIVNTLKDGRRVVILMELEVLKSAEAVGVKIGNPVPYNE
notes: RPA70, human, N-terminal domain, residues 1-120, with E7R (variant optimised for crystallisation of complexes); source: E. coli BL21 (DE3), purified (HisTrap, thrombin cleavage, Superdex 75)
B5: PrimPol RPA-binding domain (PrimPol_(480-560)) (domain or fragment, human, UniProt Q96LW4 480-560, looked up)
chain: TTDEADETRSNETQNPHKPSPSRLSTGASADAVWDNGIDDAYFLEATEDAELAEAAENSLLSYNSEVDEIPDELIIEVLQE
notes: 15N-enriched for one NMR sample; also called PrimPolRBD; RBD; source: E. coli BL21(pLysS), purified (Ni Sepharose, Q Sepharose, Superdex 75)

How the values were obtained:
Settings in all cases: both partners purified
[1] = target: B5; assay: SEC; analytical gel filtration, Superdex S75 10/300 GL, 50 mM Tris-HCl pH 7.5, 100 mM NaCl, 2 mM TCEP; 0.5 ml loaded at 35 uM; binding read from a shift of the peaks
[2] = target: B5; assay: SEC-MALS; Superdex 75 increase 10/300 GL, 20 mM HEPES pH 7.1, 80 mM NaCl, 0.5 mM TCEP; RBD at 185 uM with RPA70N E7R at 0, 1, 2 and 4 x molar ratios
RPA70N^E7R = target: B2; assay: crystal structure; co-crystals by sitting-drop vapour diffusion at 293 K; RPA70N E7R with PrimPol 514-528 peptide (2.5:1 peptide:protein) or with PrimPol 480-560 (1:1)
[3] = target: B1; assay: NMR titration; 15N-1H HSQC at 25 C; 100 uM 15N-enriched RPA70N or 15N-enriched PrimPol 480-560 alone and with 200 uM unlabelled partner; 20 mM HEPES pH 7.5, 80 mM NaCl, 2 mM DTT
[4] = target: B1; assay: ITC; MicroCal VP-ITC; 400 uM PrimPol RBD (WT or variants) injected into 20 uM RPA70N; 20 mM HEPES pH 7.5, 80 mM NaCl, 3 mM beta-mercaptoethanol; single-site model

Binder: B1
stoichiometry N [1]: 2 RPA70N per PrimPolRBD

Binder: B2
stoichiometry N [2]: 1 RPA70N per PrimPolRBD and 2 RPA70N per PrimPolRBD

Binder: B5
binding result (RPA70N^E7R): binds
binding result [3]: binds

Continued, values first:

binding result (RPA70N^E7R): binds
B3: PrimPol_(514-528) peptide (peptide, UniProt Q96LW4 514-528, looked up)
peptide: DNGIDDAYFLEATED
notes: PrimPol, human, residues 514-528 (RBM-A), 15-mer; also called RBM-A peptide residues (PrimPol_(514-528)); 15-mer PrimPol_(514-528) peptide; source: synthetic peptide (Genscript), used as supplied

binding result [3]: binds
B4: RBM-A peptide (RBM-A_(510-528)) (peptide, UniProt Q96LW4 510-528, looked up)
peptide: DAVWDNGIDDAYFLEATED
notes: source: synthetic peptide (GenScript), HPLC purified

Kd [4]: 7.8 ± 0.6 µM
B6: PrimPol RBD RBM-A knockout (D514R/D518R/D519R) (domain or fragment, human, UniProt Q96LW4 480-560, looked up)
chain: TTDEADETRSNETQNPHKPSPSRLSTGASADAVWRNGIRRAYFLEATEDAELAEAAENSLLSYNSEVDEIPDELIIEVLQE
notes: PrimPol, human, RBD residues 480-560 with D514R, D518R, D519R; also called PrimPol_(A-KO); RBD_(A-KO); source: E. coli BL21(pLysS), purified (Ni Sepharose, Q Sepharose, gel filtration)

Kd [4]: 6.7 ± 1.5 µM
B7: PrimPol RBD RBM-B knockout (480-546 truncation) (domain or fragment, human, UniProt Q96LW4 480-546, looked up)
chain: TTDEADETRSNETQNPHKPSPSRLSTGASADAVWDNGIDDAYFLEATEDAELAEAAENSLLSYNSEV
notes: PrimPol, human, residues 480-546 (RBD without RBM-B); also called PrimPol_(B-KO); RBD_(B-KO); source: E. coli BL21(pLysS), purified (Ni Sepharose, Q Sepharose, gel filtration)
